In a protein production outcome set (Wang et al. 2014):

Assay: label from the status in PepcDB records

Row | Sequence | protein production
1 | MGRKVRAYFVHLFTASGVAFAFLAMREVVRVDLDPRWVFGWLTLAVFIDAADGPLARLWDVKLYASRILGKTIDLIVDYLTFTFIPLTLVWRMDWLPGWDGLWVTLAMVASLLGFANTAAKQSQEGFFLGFPSYWNVVAYYVGLLAVEYGAVGAYVSLGSVLTLTVLTLVPVRFVYPNAAPTPWRAIVTVGGVAWLGLLLALLPTFPELPAWGGDWVLGVSFVYPAFYFGLSGWLDWTSRQS | failed
2 | MGRLFVVNLEGKIYSCKHCKTHLATYEDIISKSFHCKHGKAYLFNKVANVSIGETEERLMMTGKHTVADIFCVSCGSIVGWKYETAHEKNQKYKEGKSVLERFKISGPDGSNYWVSSHGRHIGGSDADDA | failed
3 | MGRLGWVDPESFMQRNHELMDAYSAGKLAMEEFMAFSLEPMAGRTPEEVDHLVGPWVEDVIEPIIYSDACKCIAQHRAKGDRILVISASGVHLVKPIAERLGIDEVLGIELDVQHGVYSGATVGVLTYREGKITRLMEWLDAEGENLEGASFYSDSRNDLPLLLKVDHPNVVNPDPVLLEHAQQAGWPVHTWV | failed
4 | MGRRKKILFTDYFINLVDTYKLNQVGERTYNKYCLTHRHLKKICPDLYLQDMNANDYQQILNEFGKTHEKATTVDFHHQLAWALKRAYNVDGLTDRDVTYDAQIPKGVVTNKKKPKFMELDDMKKLVVTLKYLNSSYANFFLILLKTGLRFAELLGITLEDIDFEKKTISINKTLDYKKGAYDENFSRRFKSTKNKYSIRTIPVDDAVIYMFWRNAKGADKDESIFGSIKGFQYNSSLNNKLEQTCKYAGVPVITLHGLRHEHATYLVSQGIDSRAVAERLGHVDDSVTREVYIHRLETERVRDNQQIMRSVSKI | failed
5 | MGRRLVPLTLDNLPDLPKRCRACVFWELDPVSGEAAVKAGTSALEKEAWISAVLLDWGSCGRVVYVDDVPVGFVLYAPPAYVPRSTAFPTSPVSPDAVQLMTAFIMPGYQGQGLGRVMVQTVAKDLLRRGFKAIEAFGDAHWK | failed
6 | MGRVKLELKRIEKSTNRQITFSKRKKGLIKKAYELSTLCDIDLALLMFSPSDRLCLFSGQTRIEDVLARYINLPDQERENAIVFPDQSKRQGIQNKEYLLRTLEKLKIEDDMALQINEPRFIPH | failed
7 | MGRVLDRIEVVAEEIRGQAVQSEADCRLTDAAAGLLRDSGAIRLLQPRLYGGYEVHPREFAETVMGVAALDGASGWVTGIVGVHPWELAFADPQVQEEIWGEDNDTWMASPYAPMGVATPVDGGYVLKGRWSFSSGTDHCQWAFLGAMVGDGEGGIATPSSLHVILPRTDYQIVEDTWDVIGLRGTGSKDLIVDGAFVPGYRTLNAAKVMDGRAQKEAGRPEPLFNMPYSCMFPLGITAAVIGITEGALACHIAVQKDRVAITGQKIKEDPYVLSAIGESAAEINASRVSLIETADRFYDKVDAGKEITFEERAIGRRTQIAAAWRAVRAADEIFARAGGGALHYKTPMQRFWRDAHAGLAHAVHVPGPTNHASALTQLGGEPQGMMRAMI | not failed
8 | MGSIDRYIFRTTLVSFAVVMGSLTGVIWITQALRGIDLMTSQGQTIITFLGLTGLAVPVLVLVIAPIALMIAVAHTLNRLATDSEIIVMNAAGLSPIRLFRPFFYATMVVAALVIIIGAYIAPDGLRRIARWDSEITADVLANVLQPGRFAQLEQGLTIRVRERQPGGLLVGVFIDDARAPNERVSIIADHGTVVKNDKGSFLVLEDGHLERFQTGKQEPALVAFSRYAFDMSKFSRARDVAYGIRERYLWELLWPAENDPLLARLPTEFRSEMHDRLLAPIYPFFFAAVAFAFLGLARTTRQSRNFSMAGAVLVAFVVRLAGFALSVIANKTPYVAGLQYLLLFVATGTCLWLINRNVVIEPPARVTEALNAFNASIARLIRRPVPA | failed
9 | MGSKNESTASKASGTASEKKKIEYLDKTYEVTVPTDKIAITGSVESMEDAKLLDVHPQGAISFSGKFPDMFKDITDKAEPTGEKMEPNIEKILEMKPDVILASTKFPEKTLQKISTAGTTIPVSHISSNWKENMMLLAQLTGKEKKAKKIIADYEQDLKEIKTKINDKAKDSKALVIRIRQGNIYIYPEQVYFNSTLYGDLGLKAPNEVKAAKAQELSSLEKLSEMNPDHIFVQFSDDENADKPDALKDLEKNPIWKSLKAVKEDHVYVNSVDPLAQGGTAWSKVRFLKAAAEKLTQNLEHHHHHH | not failed
10 | MGSPKVEDTLISDAQIEEAKQDGTTTAVYVIARNSGEFADRLDAEGDYQLWSNEEENLKKVVANFDNVIVVLNVGGIIDTKFFHEIEGLDSLLLMSQAGMRGGDAVVKVLNGEVTPSGKLTDTWAVNYEDYSSSETFGKNDVNTTQEDYTDDIYVGYRYFDTFNVTPAYEFGYGLSYTDFNIDVKDVTVDEENVTVDVKVTNVGKQYSGKEVVEVYFSAPDGALEKPYQELATYGKTDTLAPGESQTLTLSYATTEMSAYSEDLAAYVMEDGDYLVRVGNSSRNTSVEAVINLDSNKVTEQLSNQMVQDEEIDTLSNEGATPYTYEGEAEEIAKAERFELDANAIETVNNASEYDDESVISYVYEGSDYTVVDQEANPRYTKAPSGNNTTPSQLIEPYEETIQYVEKTKENPTLLDVYQGTVTMEELLASLSVEEMSNIVEGLGWGGGSEPIIGAQANSVKGAAGETTSKYYETRAIPNTVLADGPAGIRITQSYEEDGTTYYQYCTAFPIGTLIAQSWDKDVAKQFGEAIGEEMLEMGVTMWLAPGMNIHRNPLCGRNFEYYSEDPLVAGVTAASTTLGVQSHEGIGVTLKHYAANNQEDNRNAVNNTITERALREIYLKGFEIAVKTANPMALMTCYNLNNAMPGADDYDLCTDIPRGEWGFNGLIMTDWGGGQSTPVNSMHAGNDLIMPGGSSKSIAEATGVTLPLGDLQKATRNVLNVIMDSTQFKKIGVENGVEVEIGKFTESAGLGLFLDVTKSEVTSVNKTALQIAVDVASNIADEELENVVPAVANELKAALEEAKAILEDATAEQETVDASFDRLATAIQMLDFIKGDKAALRSFITKVENTVEEEYTPATWTAFAAALGTGNTVLANENAMQEEVDNAYTNLVKAYLNLRLVPNKDKLEDLINQTKALVAANYTADTWKNVSDALVLAENVMSNENATSEEVANAETVLTKAVEGLVVNNTPVTPSTPAVDNTVDSTVKTPVNSGDTTASVKTGDESLTGLFGGITLLSLAGAVLLKRKEN | failed
11 | MGSSHHHHHHSSGLVPRGSHDSAQSDLKEVMVLNATESFVYEPKEQKKMFHATVATENEVFRVKVFNIDLKEKFTPKKIIAIANYVCRNGFLEVYPFTLVADVNADRNMEIPKGLIRSASVTPKINQLCSQTKGSFVNGVFEVHKKNVRGEFTYYEIQDNTGKMEVVVHGRLTTINCEEGDKLKLTCFELAPKSGNTGELRSVIHSHIKVIKTRK | not failed
12 | MGSSHHHHHHSSGLVPRGSHMGKEYFLKVALREAKRAFEKGEVPVGAIIVKEGEIISKAHNSVEELKDPTAHAEMLAIKEACRRLNTKYLEGCELYVTLEPCIMCSYALVLSRIEKVIFSALDKKHGGVVSVFNILDEPTLNHRVKWEYYPLEEASELLSEFFKKLRNNII | not failed
13 | MGSSHHHHHHSSGRENLYFQGMKEVEKNEIKRLSDRLDAIRHQQADLSLVEAADKYAELEKEKATLEAEIARLREVHSQKLSKEAQKLMKMPFQRAITKKEQADMGKLKKSVRGLVVVHPMTALGREMGLEEMTGFSKTTF | not failed
14 | MGSTFFGRPNVVGSSPPSSSPTSSSSSPATRRGKKNGSEKPKQPQRGLGVAQLEKIRLHGEMSCNSFNSYNPSLYPQVTYTNTSLHNRDSDPKASKLIKTRYICV | failed
15 | MGSVLVDLQIATENIEGLPTEEQIVQWATGAVQPEGNEVEMTVRIVDEAESHELNLTYRGKDRPTNVLSFPFECPDEVELPLLGDLVICRQVVEREASEQEKPLMAHWAHMVVHGSLHLLGYDHIEDDEAEEMESLETQIMQGLGFDDPYLAEK | not failed
16 | MGSYQLLVPPPEALSKPLSVPTRLLLGPGPSNLAPRVLAAGSLRMIGHMQKEMLQIMEEIKQGIQYVFQTRNPLTLVVSGSGHCAMETALFNLLEPGDSFLTGTNGIWGMRAAEIADRIGARVHQMIKKPGEHYTLQEVEEGLAQHKPVLLFLVHGESSTGVVQPLDGFGELCHRYQCLLLVDSVASLGGVPIYMDQQGIDIMYSSSQKVLNAPPGISLISFNDKAKYKVYSRKTKPVSFYTDITYLAKLWGCEGETRVIHHTTPVTSLYCLRESLALIAEQGLENCWRRHREATAHLHKHLQEMGLKFFVKDPEIRLPTITTVTVPAGYNWRDIVSYVLDHFSIEISGGLGPTEERVLRIGLLGYNATTENVDRVAEALREALQHCPKNKL | not failed
17 | MGTGGITSNAHVVSPTWHHKHVPPMDDDSVLQRDIGELLSRWGGLQMAVKNQWGGHDSLKKSQELAHNLFHLISQSNGSIFFLLL | failed
18 | MGTKVSDMQKNVTPGRRKGCPNYPPEFKQQLVAASCEPGISISKLALENGINANLLFKWRQQWREGKLLLPSSESPQLLPVTLDAAAEQPESLAEDPETLSISCEVTFRHGTLRFNGNVSEKLLTLLIQELKR | failed
19 | MGTLWWNGTFFTMVHEGDQVEAVFTEDGKIVAIGTAEELRQRYSTRINQEMNCDGAYVYPLEHHHHHH | not failed
20 | MGTVHARSLDPLPMNGPDFGSPDDADLVEVEPQKKQEILENKDVVVQRVHFEGLGRTKDDLVAHEIGQVFKAKNLIEVMRKSHEAREKLLRLGVFRNVEVLIDTCEGEDAVPNGLDVTFEVTELRRVTGSYNTMVGNNEGSMVLGLKLPNLFGRAEKMTFQFSYGTKETSYGLSFFKPQVGNFERNFSVNLYKVTGQFPWSSLRETDRGVSAEINFPIWKTSHTLKWEGVWRELGCLARTASFTIREESGHTLKSSLSHSMVIDSRNASILPKSGALLKINQELAGYTGGDVSFLKEDFELQLNRQLTWDSVLSTSLWGGMLVPIGDRPSSIADRFYLGGPTSVRGFSMYSIGPQSEGDYLGGEAYWAGGVHLYTPLPFRPGRGGFGDLFRTHFFLNAGNLCNLNYGEGPGAHLRRLAECIRWSYGAGLVLRLGNIARLELNYCIPMGVQSGDRICDGVQFGAGIRFL | failed
21 | MGTVSKALTLLTYFNHGRLEIGLSDLTRLSGMNKATVYRLMSELQEAGFVEQVEGARSYRLGPQVLRLAALREASVPILSASRRVLRELSEDTGETTHLSLLQGEQLASLSHAYSSRNATKVMMEDAEVLTFHGTASGLAVLAYSEPSFVDAVLAAPLTARTPQTQTDPAAIRAEIAEVRRTGLAQSIGGFEAEVHSHAVPIFGPDRAVLGALAVAAPTSRMTPDQKRTIPPALRAAGLSLTERIGGACPPEFPTDIAA | not failed
22 | MGVLDIVKAGVISGDELNKIYDYAKAEGFAIPAVNVVGTDSINAVLEAAKKVNSPVIIQFSNGGAKFYAGKNCPNGEVLGAISGAKHVHLLAKAYGVPVILHTDHAARKLLPWIDGLIEANAQYKKTHGQALFSSHMLDLSEESLEENLSTCEVYLQKLDALGVALEIELGCTGGEEDGVDNTGIDNSKLYTQPEDVALAYERLGKISDKFSIAASFGNVHGVYKPGNVSLQPEILKNSQKFVKDKFALNSDKPINFVFHGGSGSELKDIKNAVSYGVIKMNIDTDTQWAFWDGVREYELKNRAYLQGQIGNPEGDDKPNKKYYDPRVWLRSGEESMIKRLEIAFEDLNCINKN | not failed
23 | MGVNMEVCVVKPTSVDDSREITETLLAGRTVILNLEGMDLEIAQRIIDFISGATFAISGNLQKISNYIFLVTPTNVDILEHHHHHH | failed
24 | MGVSEISRSEEKSGIGFVKLFENNVVFPGFLVWMNQTIQEPLKAEFKRLRNVKELSLKSVSKIETAYEEHRDEEKLEKQLQAWRDNPSWIDQPPKVVVKSQNGLFCHLNIEADVGLPPELVYNIFTHPDNKRYFKNIKENISRKVLIDEGPKQTVEVKQAAAWKFLWWDGTCPIHLIVEENRKNLTSKYKQETTMFMKVFEGCWKVEPLFIDEHLCDRSKPKSQKDYHSCSNGRGRIGSKVTMDQMFQPSALLTPPPLSWYIRGITIKTTESMIEDLFAEATRLRGGKGGGYIDDQGENNVVTEKSKADDIKERWRSHRRSKRRRFTTARSM | failed
